We go through one molecule from PMC6941951, “Conditional control of RNA-guided nucleic acid cleavage and gene editing”.

The target in this data set is T1, dCas13a (LbuCas13a R1079A/K1080A) (Leptotrichia buccalis, UniProt C7NBY4 1-1159, R1079A;K1080A).
T1 sequence: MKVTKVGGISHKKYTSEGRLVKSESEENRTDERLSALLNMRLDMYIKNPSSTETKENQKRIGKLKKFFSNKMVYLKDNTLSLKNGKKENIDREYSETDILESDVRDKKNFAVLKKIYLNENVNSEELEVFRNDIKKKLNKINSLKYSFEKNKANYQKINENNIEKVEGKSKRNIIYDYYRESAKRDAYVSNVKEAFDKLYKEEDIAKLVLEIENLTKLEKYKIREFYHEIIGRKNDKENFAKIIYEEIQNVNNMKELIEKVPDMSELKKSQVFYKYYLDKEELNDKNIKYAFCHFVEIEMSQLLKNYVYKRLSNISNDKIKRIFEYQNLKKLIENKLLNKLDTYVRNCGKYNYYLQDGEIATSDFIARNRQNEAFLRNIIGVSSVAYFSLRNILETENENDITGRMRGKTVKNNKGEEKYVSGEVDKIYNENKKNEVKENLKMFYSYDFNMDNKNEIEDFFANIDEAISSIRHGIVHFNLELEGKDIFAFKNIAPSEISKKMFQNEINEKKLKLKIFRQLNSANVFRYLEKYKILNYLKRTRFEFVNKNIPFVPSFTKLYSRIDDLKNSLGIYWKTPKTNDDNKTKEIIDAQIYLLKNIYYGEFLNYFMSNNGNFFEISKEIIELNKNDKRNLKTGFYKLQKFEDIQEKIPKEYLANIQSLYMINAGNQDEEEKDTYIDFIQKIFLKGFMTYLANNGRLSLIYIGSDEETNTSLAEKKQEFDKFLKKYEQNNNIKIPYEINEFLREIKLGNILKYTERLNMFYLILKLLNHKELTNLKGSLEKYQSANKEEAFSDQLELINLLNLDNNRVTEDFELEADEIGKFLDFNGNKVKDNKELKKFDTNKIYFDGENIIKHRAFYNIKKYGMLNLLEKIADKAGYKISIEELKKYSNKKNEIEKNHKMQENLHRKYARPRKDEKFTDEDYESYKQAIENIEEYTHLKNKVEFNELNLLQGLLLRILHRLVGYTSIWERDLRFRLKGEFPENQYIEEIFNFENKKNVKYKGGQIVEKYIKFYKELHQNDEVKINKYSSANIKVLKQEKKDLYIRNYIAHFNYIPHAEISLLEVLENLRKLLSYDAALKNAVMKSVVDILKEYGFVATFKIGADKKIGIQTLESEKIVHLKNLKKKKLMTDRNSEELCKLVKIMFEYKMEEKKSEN
Kind of data set: EMSA; no target RNA; dCas13a EMSA: 20 mM HEPES pH 6.8 (25 C), 50 mM KCl, 10 ug/mL BSA, 100 ug/mL yeast tRNA, 0.01% Igepal CA-630, 5% glycerol; 10 min at 37 C; 6% native PAGE at 4 C. The settings on record: protein: recombinant; tags: His6-MBP removed with TEV protease; label: 5'-Cy3; single strand, repeat hairpin. (In general: In EMSA bound probe runs differently from free probe, usually more slowly.)

B1: crRNA13a-Cy3 (unmasked) (structured_RNA)
RNA: GAUUUAGACUACCCCAAAAACGAAGGGGACUAAAACUAGAUUGCUGUUCUACCAAGUAAUCCAU
B1: the binding result is on record as “binds”.
